{"source": "patent CN116744966A", "target": "SARS-CoV-2 spike protein (wild type) on pseudovirus (SARS-CoV-2) (UniProt P0DTC2)", "assay": "cell-based or functional assay", "data": [{"substance": "ACE2-Ig (positive control of the pseudovirus neutralisation assay) (Fc fusion)", "values": [{"measurement": "IC50, pseudovirus neutralisation (positive control)", "result": 0.9, "unit": "µg/mL"}]}]}
